B1: Fcab FS17-33-116 with LALA mutation (designed binder)
chain: TCPPCPAPEAAGGPSVFLFPPKPKDTLMISRTPEVTCVVVDVSHEDPEVKFNWYVDGVEVHNAKTKPREEQYNSTYRVVSVLTVLHQDWLNGKEYKCKVSNKALPAPIEKTISKAKGQPREPQVYTLPPSRDESGYWVSLTCLVKGFYPSDIVVEWESNGEPQYWAKTTPPVLDSDGSFFLYSKLTVSNWRWQMDDFSCSVMHEALHNHYTQKSLSLSPGK
B2: Fcab FS17-33-289 (designed binder)
chain: TCPPCPAPELLGGPSVFLFPPKPKDTLMISRTPEVTCVVVDVSHEDPEVKFNWYVDGVEVHNAKTKPREEQYNSTYRVVSVLTVLHQDWLNGKEYKCKVSNKALPAPIEKTISKAKGQPREPQVYTLPPSRDESGYWVSLTCLVKGFYPSDIVVEWESNGEPQYWAKTTPPVLDSDGSFFLYSKLTVSNWRWQLDDFSCSVMHEALHNHYTQKSLSLSPGK
B3: Fcab FS17-33-334 with LALA mutation (designed binder)
chain: TCPPCPAPEAAGGPSVFLFPPKPKDTLMISRTPEVTCVVVDVSHEDPEVKFNWYVDGVEVHNAKTKPREEQYNSTYRVVSVLTVLHQDWLNGKEYKCKVSNKALPAPIEKTISKAKGQPREPQVYTLPPSRDESGYWVSLTCLVKGFYPSDIAVEWESNGEPQYWAKTTPPVLDSDGSFFLYSKLTVSNWRWQLDDFSCSVMHEALHNHYTQKSLSLSPGK
B4: Fcab FS17-33-296 with LALA mutation (designed binder)
chain: TCPPCPAPEAAGGPSVFLFPPKPKDTLMISRTPEVTCVVVDVSHEDPEVKFNWYVDGVEVHNAKTKPREEQYNSTYRVVSVLTVLHQDWLNGKEYKCKVSNKALPAPIEKTISKAKGQPREPQVYTLPPSRDESGYWVSLTCLVKGFYPSDIVVEWESNGEPQYWAKTTPPVLDSDGSFFLYSKLTVSNWRWQVDDFSCSVMHEALHNHYTQKSLSLSPGK
B5: Fcab FS17-33-289 with LALA mutation (designed binder)
chain: TCPPCPAPEAAGGPSVFLFPPKPKDTLMISRTPEVTCVVVDVSHEDPEVKFNWYVDGVEVHNAKTKPREEQYNSTYRVVSVLTVLHQDWLNGKEYKCKVSNKALPAPIEKTISKAKGQPREPQVYTLPPSRDESGYWVSLTCLVKGFYPSDIVVEWESNGEPQYWAKTTPPVLDSDGSFFLYSKLTVSNWRWQLDDFSCSVMHEALHNHYTQKSLSLSPGK
B6: Fcab FS17-33-288 with LALA mutation (designed binder)
chain: TCPPCPAPEAAGGPSVFLFPPKPKDTLMISRTPEVTCVVVDVSHEDPEVKFNWYVDGVEVHNAKTKPREEQYNSTYRVVSVLTVLHQDWLNGKEYKCKVSNKALPAPIEKTISKAKGQPREPQVYTLPPSRDESGYWVSLTCLVKGFYPSDIVVEWESNGEPQYWAKTTPPVLDSDGSFFLYSKLTVSNWRWQIDDFSCSVMHEALHNHYTQKSLSLSPGK
B7: Fcab FS17-33-296 (designed binder)
chain: TCPPCPAPELLGGPSVFLFPPKPKDTLMISRTPEVTCVVVDVSHEDPEVKFNWYVDGVEVHNAKTKPREEQYNSTYRVVSVLTVLHQDWLNGKEYKCKVSNKALPAPIEKTISKAKGQPREPQVYTLPPSRDESGYWVSLTCLVKGFYPSDIVVEWESNGEPQYWAKTTPPVLDSDGSFFLYSKLTVSNWRWQVDDFSCSVMHEALHNHYTQKSLSLSPGK
B8: FS17-33-289AA/HelD1.3 mock mAb^2 (bispecific antibody, human IgG1, kappa, L234A L235A)
heavy: QVQLQESGPGLVRPSQTLSLTCTVSGSTFSGYGVNWVRQPPGRGLEWIGMIWGDGNTDYNSALKSRVTMLVDTSKNQFSLRLSSVTAADTAVYYCARERDYRLDYWGQGSLVTVSSASTKGPSVFPLAPSSKSTSGGTAALGCLVKDYFPEPVTVSWNSGALTSGVHTFPAVLQSSGLYSLSSVVTVPSSSLGTQTYICNVNHKPSNTKVDKKVEPKSCDKTHTCPPCPAPEAAGGPSVFLFPPKPKDTLMISRTPEVTCVVVDVSHEDPEVKFNWYVDGVEVHNAKTKPREEQYNSTYRVVSVLTVLHQDWLNGKEYKCKVSNKALPAPIEKTISKAKGQPREPQVYTLPPSRDESGYWVSLTCLVKGFYPSDIVVEWESNGEPQYWAKTTPPVLDSDGSFFLYSKLTVSNWRWQLDDFSCSVMHEALHNHYTQKSLSLSPGK
light: DIQMTQSPASLSASVGETVTITCRASGNIHNYLAWYQQKQGKSPQLLVYNAKTLADGVPSRFSGSGSGTQYSLKINSLQPEDFGSYYCQHFWSTPRTFGGGTKLEIKRTVAAPSVFIFPPSDEQLKSGTASVVCLLNNFYPREAKVQWKVDNALQSGNSQESVTEQDSKDSTYSLSSTLTLSKADYEKHKVYACEVTHQGLSSPVTKSFNRGEC
notes: also called F17-33-289AA/HelD1.3; F17-33-289AA/HELD1.3
B9: FS17-33-296/HelD1.3 mock mAb^2 (without LALA) (bispecific antibody, human IgG1, kappa)
heavy: QVQLQESGPGLVRPSQTLSLTCTVSGSTFSGYGVNWVRQPPGRGLEWIGMIWGDGNTDYNSALKSRVTMLVDTSKNQFSLRLSSVTAADTAVYYCARERDYRLDYWGQGSLVTVSSASTKGPSVFPLAPSSKSTSGGTAALGCLVKDYFPEPVTVSWNSGALTSGVHTFPAVLQSSGLYSLSSVVTVPSSSLGTQTYICNVNHKPSNTKVDKKVEPKSCDKTHTCPPCPAPELLGGPSVFLFPPKPKDTLMISRTPEVTCVVVDVSHEDPEVKFNWYVDGVEVHNAKTKPREEQYNSTYRVVSVLTVLHQDWLNGKEYKCKVSNKALPAPIEKTISKAKGQPREPQVYTLPPSRDESGYWVSLTCLVKGFYPSDIVVEWESNGEPQYWAKTTPPVLDSDGSFFLYSKLTVSNWRWQVDDFSCSVMHEALHNHYTQKSLSLSPGK
light: DIQMTQSPASLSASVGETVTITCRASGNIHNYLAWYQQKQGKSPQLLVYNAKTLADGVPSRFSGSGSGTQYSLKINSLQPEDFGSYYCQHFWSTPRTFGGGTKLEIKRTVAAPSVFIFPPSDEQLKSGTASVVCLLNNFYPREAKVQWKVDNALQSGNSQESVTEQDSKDSTYSLSSTLTLSKADYEKHKVYACEVTHQGLSSPVTKSFNRGEC
B10: FS17-33-289/HelD1.3 mock mAb^2 (without LALA) (bispecific antibody, human IgG1, kappa)
heavy: QVQLQESGPGLVRPSQTLSLTCTVSGSTFSGYGVNWVRQPPGRGLEWIGMIWGDGNTDYNSALKSRVTMLVDTSKNQFSLRLSSVTAADTAVYYCARERDYRLDYWGQGSLVTVSSASTKGPSVFPLAPSSKSTSGGTAALGCLVKDYFPEPVTVSWNSGALTSGVHTFPAVLQSSGLYSLSSVVTVPSSSLGTQTYICNVNHKPSNTKVDKKVEPKSCDKTHTCPPCPAPELLGGPSVFLFPPKPKDTLMISRTPEVTCVVVDVSHEDPEVKFNWYVDGVEVHNAKTKPREEQYNSTYRVVSVLTVLHQDWLNGKEYKCKVSNKALPAPIEKTISKAKGQPREPQVYTLPPSRDESGYWVSLTCLVKGFYPSDIVVEWESNGEPQYWAKTTPPVLDSDGSFFLYSKLTVSNWRWQLDDFSCSVMHEALHNHYTQKSLSLSPGK
light: DIQMTQSPASLSASVGETVTITCRASGNIHNYLAWYQQKQGKSPQLLVYNAKTLADGVPSRFSGSGSGTQYSLKINSLQPEDFGSYYCQHFWSTPRTFGGGTKLEIKRTVAAPSVFIFPPSDEQLKSGTASVVCLLNNFYPREAKVQWKVDNALQSGNSQESVTEQDSKDSTYSLSSTLTLSKADYEKHKVYACEVTHQGLSSPVTKSFNRGEC
B11: FS17-33-296AA/HelD1.3 mock mAb^2 (bispecific antibody, human IgG1, kappa, L234A L235A)
heavy: QVQLQESGPGLVRPSQTLSLTCTVSGSTFSGYGVNWVRQPPGRGLEWIGMIWGDGNTDYNSALKSRVTMLVDTSKNQFSLRLSSVTAADTAVYYCARERDYRLDYWGQGSLVTVSSASTKGPSVFPLAPSSKSTSGGTAALGCLVKDYFPEPVTVSWNSGALTSGVHTFPAVLQSSGLYSLSSVVTVPSSSLGTQTYICNVNHKPSNTKVDKKVEPKSCDKTHTCPPCPAPEAAGGPSVFLFPPKPKDTLMISRTPEVTCVVVDVSHEDPEVKFNWYVDGVEVHNAKTKPREEQYNSTYRVVSVLTVLHQDWLNGKEYKCKVSNKALPAPIEKTISKAKGQPREPQVYTLPPSRDESGYWVSLTCLVKGFYPSDIVVEWESNGEPQYWAKTTPPVLDSDGSFFLYSKLTVSNWRWQVDDFSCSVMHEALHNHYTQKSLSLSPGK
light: DIQMTQSPASLSASVGETVTITCRASGNIHNYLAWYQQKQGKSPQLLVYNAKTLADGVPSRFSGSGSGTQYSLKINSLQPEDFGSYYCQHFWSTPRTFGGGTKLEIKRTVAAPSVFIFPPSDEQLKSGTASVVCLLNNFYPREAKVQWKVDNALQSGNSQESVTEQDSKDSTYSLSSTLTLSKADYEKHKVYACEVTHQGLSSPVTKSFNRGEC
notes: also called F17-33-296AA/HelD1.3; F17-33-296AA/HELD1.3
B12: FS17-33-334AA/HelD1.3 mock mAb^2 (bispecific antibody, human IgG1, kappa, L234A L235A)
heavy: QVQLQESGPGLVRPSQTLSLTCTVSGSTFSGYGVNWVRQPPGRGLEWIGMIWGDGNTDYNSALKSRVTMLVDTSKNQFSLRLSSVTAADTAVYYCARERDYRLDYWGQGSLVTVSSASTKGPSVFPLAPSSKSTSGGTAALGCLVKDYFPEPVTVSWNSGALTSGVHTFPAVLQSSGLYSLSSVVTVPSSSLGTQTYICNVNHKPSNTKVDKKVEPKSCDKTHTCPPCPAPEAAGGPSVFLFPPKPKDTLMISRTPEVTCVVVDVSHEDPEVKFNWYVDGVEVHNAKTKPREEQYNSTYRVVSVLTVLHQDWLNGKEYKCKVSNKALPAPIEKTISKAKGQPREPQVYTLPPSRDESGYWVSLTCLVKGFYPSDIAVEWESNGEPQYWAKTTPPVLDSDGSFFLYSKLTVSNWRWQLDDFSCSVMHEALHNHYTQKSLSLSPGK
light: DIQMTQSPASLSASVGETVTITCRASGNIHNYLAWYQQKQGKSPQLLVYNAKTLADGVPSRFSGSGSGTQYSLKINSLQPEDFGSYYCQHFWSTPRTFGGGTKLEIKRTVAAPSVFIFPPSDEQLKSGTASVVCLLNNFYPREAKVQWKVDNALQSGNSQESVTEQDSKDSTYSLSSTLTLSKADYEKHKVYACEVTHQGLSSPVTKSFNRGEC
B13: FS17-33-288AA/HelD1.3 mock mAb^2 (bispecific antibody, human IgG1, kappa, L234A L235A)
heavy: QVQLQESGPGLVRPSQTLSLTCTVSGSTFSGYGVNWVRQPPGRGLEWIGMIWGDGNTDYNSALKSRVTMLVDTSKNQFSLRLSSVTAADTAVYYCARERDYRLDYWGQGSLVTVSSASTKGPSVFPLAPSSKSTSGGTAALGCLVKDYFPEPVTVSWNSGALTSGVHTFPAVLQSSGLYSLSSVVTVPSSSLGTQTYICNVNHKPSNTKVDKKVEPKSCDKTHTCPPCPAPEAAGGPSVFLFPPKPKDTLMISRTPEVTCVVVDVSHEDPEVKFNWYVDGVEVHNAKTKPREEQYNSTYRVVSVLTVLHQDWLNGKEYKCKVSNKALPAPIEKTISKAKGQPREPQVYTLPPSRDESGYWVSLTCLVKGFYPSDIVVEWESNGEPQYWAKTTPPVLDSDGSFFLYSKLTVSNWRWQIDDFSCSVMHEALHNHYTQKSLSLSPGK
light: DIQMTQSPASLSASVGETVTITCRASGNIHNYLAWYQQKQGKSPQLLVYNAKTLADGVPSRFSGSGSGTQYSLKINSLQPEDFGSYYCQHFWSTPRTFGGGTKLEIKRTVAAPSVFIFPPSDEQLKSGTASVVCLLNNFYPREAKVQWKVDNALQSGNSQESVTEQDSKDSTYSLSSTLTLSKADYEKHKVYACEVTHQGLSSPVTKSFNRGEC
notes: also called F17-33-288AA/HelD1.3; F17-33-288AA/HELD1.3

This test deals with Human PD-L1 expressed on cells (human, UniProt Q9NZQ7 19-290). Briefly: cell-based or functional assay.
Human PD-L1 expressed on cells, sequence (Q9NZQ7 19-290 limits assumed): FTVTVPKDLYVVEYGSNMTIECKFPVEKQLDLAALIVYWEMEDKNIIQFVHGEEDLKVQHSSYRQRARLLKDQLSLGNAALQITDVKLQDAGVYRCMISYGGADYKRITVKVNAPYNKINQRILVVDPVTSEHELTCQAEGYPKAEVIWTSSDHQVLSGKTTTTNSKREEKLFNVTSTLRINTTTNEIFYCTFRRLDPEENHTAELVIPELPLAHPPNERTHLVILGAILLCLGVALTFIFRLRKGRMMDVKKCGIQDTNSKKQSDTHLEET
For B1, the “SEB assay (IFNγ release) EC50” value was 100 pM.

On to B2, for which the “SEB assay (IFNγ release) EC50” value was 88.5 pM.

With B3, the “SEB assay (IFNγ release) EC50” value was determined as 144 pM.

Turning to B4, the “SEB assay (IFNγ release) EC50” value was determined as 124 pM.

For the molecule B5, the “SEB assay (IFNγ release) EC50” value was found to be 108 pM.

B6: the “SEB assay (IFNγ release) EC50” value amounted to 89.9 pM.

In the case of B7, the “SEB assay (IFNγ release) EC50” value was 86.9 pM.

Regarding B8, the “SEB assay (IFNγ release) EC50” value came out at 566 pM.

In the case of B9, the “SEB assay (IFNγ release) EC50” value is 1710 pM.

B10: the “SEB assay (IFNγ release) EC50” value amounted to 969 pM.

For the molecule B11, the “SEB assay (IFNγ release) EC50” value was determined as 1770 pM.

On to B12, for which the “SEB assay (IFNγ release) EC50” value came out at 761 pM.

In the case of B13, the “SEB assay (IFNγ release) EC50” value stood at 1020 pM.
